Assay results from US20200199212A1 (Eli Lilly, published 2020).
Each block holds one binder with its values, some of them ahead of it.

Biological target: T1, LPL on LPL-expressing cells (Example 1)
T1 sequence (P06858 28-475, species assumed, looked up): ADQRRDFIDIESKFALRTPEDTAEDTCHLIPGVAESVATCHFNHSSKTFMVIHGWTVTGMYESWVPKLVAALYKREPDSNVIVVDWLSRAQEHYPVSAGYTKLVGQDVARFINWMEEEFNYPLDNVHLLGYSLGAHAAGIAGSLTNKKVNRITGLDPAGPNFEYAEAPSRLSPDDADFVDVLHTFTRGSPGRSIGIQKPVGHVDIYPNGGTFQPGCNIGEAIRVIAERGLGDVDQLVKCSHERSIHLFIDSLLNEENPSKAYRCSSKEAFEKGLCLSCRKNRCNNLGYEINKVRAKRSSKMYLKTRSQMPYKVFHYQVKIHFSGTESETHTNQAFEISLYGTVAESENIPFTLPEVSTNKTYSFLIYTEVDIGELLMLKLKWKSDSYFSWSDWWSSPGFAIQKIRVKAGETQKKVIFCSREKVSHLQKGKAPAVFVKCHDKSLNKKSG
Assay: cell-based or functional assay

- EC50 in the LPL assay (inhibition of LPL): 21.5 nM
B1: human ANGPTL3 (ligand)
chain: SRIDQDNSSFDSLSPEPKSRFAMLDDVKILANGLLQLGHGLKDFVHKTKGQINDIFQKLNIFDQSFYDLSLQTSEIKEEEKELRRTTYKLQVKNEEVKNMSLELNSKLESLLEEKILLQQKVKYLEEQLTNLIQNQPETPEHPEVTSLKTFVEKQDNSIKDLLQTVEDQYKQLNQQHSQIKEIENQLRRTSIQEPTEISLSSKPRAPRTTPFLQLNEIRNVKHDGIPAECTTIYNRGEHTSGMYAIRPSNSQVFHVYCDVISGSPWTLIQHRIDGSQNFNETWENYKYGFGRLDGEFWLGLEKIYSIVKQSNYVLRIELEDWKDNKHYIEYSFYLGNHETNYTLHLVAITGNVPNAIPENKDLVFSTWDHKAKGHFNCPEGYSGGWWWHDECGENNLNGKYNKPRAKSKPERRRGLSWKSQNGRLYSIKSTKMLIHPTDSESFE

- EC50 in the LPL assay (inhibition of LPL): 0.54 nM
B2: human ANGPTL3/8 complex (other)
chain 1: SRIDQDNSSFDSLSPEPKSRFAMLDDVKILANGLLQLGHGLKDFVHKTKGQINDIFQKLNIFDQSFYDLSLQTSEIKEEEKELRRTTYKLQVKNEEVKNMSLELNSKLESLLEEKILLQQKVKYLEEQLTNLIQNQPETPEHPEVTSLKTFVEKQDNSIKDLLQTVEDQYKQLNQQHSQIKEIENQLRRTSIQEPTEISLSSKPRAPRTTPFLQLNEIRNVKHDGIPAECTTIYNRGEHTSGMYAIRPSNSQVFHVYCDVISGSPWTLIQHRIDGSQNFNETWENYKYGFGRLDGEFWLGLEKIYSIVKQSNYVLRIELEDWKDNKHYIEYSFYLGNHETNYTLHLVAITGNVPNAIPENKDLVFSTWDHKAKGHFNCPEGYSGGWWWHDECGENNLNGKYNKPRAKSKPERRRGLSWKSQNGRLYSIKSTKMLIHPTDSESFEAAADYKDDDDK
chain 2: APMGGPELAQHEELTLLFHGTLQLGQALNGVYRTTEGRLTKARNSLGLYGRTIELLGQEVSRGRDAAQELRASLLETQMEEDILQLQAEATAEVLGEVAQAQKVLRDSVQRLEVQLRSAWLGPAYREFEVLKAHADKQSHILWALTGHVQRQRREMVAQQHRLRQIQERLHTAALPA
